We go through 6 molecules from patent publication US20240245805A1 (Orna Therapeutics, Inc., priority 2020, published 2024).

To fix the notation:
B1: Picornavirales sp. isolate RtMruf-Pico V (nucleic acid)
DNA: TTTGCTCAGCGTAACTTCTCCGGGTTACGTGGAGACCAAAAGGCTACGGAGACTCGGGCTACGGCCCTGGAGCACCTAGGTGCTCCTAAAGACGTTAGAAGTTGTACAAACTCGCCCAATAGGGCCCCCCAACCAGGGGGGTAGCGGGCAAGCACTTCTGTTTCCCCGGTATGATCTCATAGGCTGTACCCACGGCTGAAAGAGAGATTATCGTTACCCGCCTCACTACTTCGAGAAGCCCAGTAATGGTTCATGAAGTTGATCTCGTTGACCCGGTGTTTCCCCCACACCAGAAACCTGTGATGGGGGTGGTCATCCCGGTCATGGCGACATGACGGACCTCCCCGCGCCGGCACAGGGCCTCTTCGGAGGACGAGTGACATGGATTCAACCGTGAAGAGCCTATTGAGCTAGTGTTGATTCCTCCGCCCCCGTGAATGCGGCTAATCCCAACTCCGGAGCAGGCGGGCCCAAACCAGGGTCTGGCCTGTCGTAACGCGAAAGTCTGGAGCGGAACCGACTACTTTCGGGAAGGCGTGTTTCCTTTTGTTCCTTTTATCAAGTTTTATGGTGACAACTCCTGGTAGACGTTTTATTGCGTTTATTGAGAGATTTCCAACAATTGAACAGACTAGAACCACTTGTTTTATCAAACCCTCACAGAATAAGATAACA
modifications: lipid formulation; source: /note="Description of Unknown: Picornavirales sp. isolate RtMruf-PicoV sequence"
B2: Avian orthoreovirus segment S1 (nucleic acid, listed as Avian orthoreovirus)
DNA: GCTTTTTCAATCCCTTGTGTCGATGTTCCCGTATGTCATCTGGTTCATGTAACGGTGCAACTTCTATTTTTGGTAACGTTCACTGTCAGGCAGCGCAAAACTCGGCGGGTGGTGATCTTCAAGCGACTTCCTCTCTTGTTGCTTATTGGCCCTACTTGGCTGCGGGCGGTGGTCTGCTCGTTGTTATTATTATAATTGTTGGCGCTGTTTGTTGTTGCAAGGCTAAGGTTAAAGCGGACGCAGCCCGAAACGTTTTCTACCGAGAGCTGTTCGCACTTAATTCGGGTAAAAGTGATGCAGGACCTCCGATTTACCAGGTTTAGTGTACGACGATTTGAGTTTTCACCTTTCGTCTTAGAGGAGTGCACTACTCCATCTTTCACGACTATAACTAATACCGATCCGGCTCTCTACTTTAACATTGAGTTTCCGTCAAGTCATCGTCTCTCCCCCTTCATTCCAGAACTGTTGTCTCAGCCTTGTACCGTTCACGTTTCATTGATTCGGAGATTCGCTCTCTGTGCAACCTTATCTAGTATTTGTGAATACGACTGTGCGCTACTGCCATCCATCAACGCTATTACGACGATCCCTACACCAGGTGCGTCATCATCTCTGATTGTTCATTGGG
B3: Human enterovirus C105 (nucleic acid, listed as Enterovirus sp.)
DNA: CCCCTAGGATCCACTGGATGTCAGTACACTGGTATCGTGGTACCTTTGTACGCCTGTTTTATACCCCCTTCCCCGCAACTTTAGAAGCATCAAAAGCACCGCTCAATAGTCACCACACCCCCAGTGTGGTTTCGAGCAAGCACTTCTGTTTTCCCGGTTGCGTCCCATATGCTGTGCAAACGGCAAAAAGGGACAATATCGTTACCCGCTTGTATACTACGGGAAACCTAGTACCACCATTGATTGTGTTGAGAGTTGCGCTCATCACCTTTCCCCGGTGTAGCTCAGGCCGATGAGGCTCAGAATCCCCCACAGGTGACTGTGTCTGAGCCTGCGTTGGCGGCCTGCCCTCGCCTTATGGCGTGGGACGCTTGATACATGACATGGTGCGAAGAGTCTACTGTGCTATGCAAGAGTCCTCCGGCCCCTGAATGTGGCTAATCCTAACCACTGATCCCACGCACGCAAACCAGTGTGTAGTGGGTCGTAACGCGCAAGTCGGTGGCGGAACCAACTACTTTGGGTGACCGTGTTTCCTTTATTACTTATTGAATGTTTATGGTGACAATTGTTTGATTCAGTTGTTGCCATTCTCTACATTCATTTACCCAGCATCAAACCAATTGAACTGTTACA
B4: Apodemus agrarius picornavirus strain Longquan-Aa118 (nucleic acid)
DNA: TTACTCAGCGTAACTACTCCGGGTTACGTGATGAAGAAGAGGCTACGGAGATTCTCGGGCTACGGCCCTGGAGCCACTCCGGCTCCTAAAGATTTAGAAGTTTGAGCACACCCGCCCACTAGGGCCCCCCATCCAGGGGGGCAACGGGCAAGCACTTCTGTTTCCCCGGTATGATCTGATAGGCTGTAACCACGGCTGAAACAGAGATTATCGTTATCCGCTTCACTACTTCGAGAAGCCTAGTAATGATGGGTGAAATTGAATCCGTTGATCCGGTGTCTCCCCCACACCAGAAACTCATGATGAGGGTTGCCATCCCGGCTACGGCGACGTAGCGGGCATCCCTGCGCTGGCATGAGGCCTCTTAGGAGGACGGATGATATGGATCTTGTCGTGAAGAGCCTATTGAGCTAGTGTCGACTCCTCCGCCCCCGTGAATGCGGCTAATCCTAACCCCGGAGCAGGTGGGTCCAATCCAGGGCCTGGCCTGTCGTAATGCGTAAGTCTGGGACGGAACCGACTACTTTCGGGAAGGCGTGTTTCCATTTGTTCATTATTTGTGTGTTTATGGTGACAACTCTGGGTAAACGTTCTATTGCGTTTATTGAGAGATTCCCAACAATTGAACAAACGAGAACTACCTGTTTTATTAAATTTACACAGAGAAGAATTACA
modifications: source: /note="Description of Unknown: Apodemus agrarius picornavirus strain Longquan-Aa118 sequence"
B5: Grusopivirus A (nucleic acid)
chain: TGCCTGAGTAGGATTGTGAATTTAGGTATGAGAGGGTTAGCCAACCCATTCTGAACCATAATAGATACGTCAATCTGAATCCATCTAAATCTATCTCTTAGGCAGTGGTGCTGAAATATTGCAAGCTACTAGGGATAGACGTGATCTGATTCAAGAACCTATCTAATGTGGTGATGAGAAGGCTAGGTTTATCCATAGTAATCCCTTGTTCTGAACAGGCAATGCACATGCTCTAGTAGGATCTCGGGCTCTGCGATTGGCTCTAAACCGACCAATCCAGGTAGAGGCACTAAGTGTAGGACTTGCCAAAATGTATTACATGCTGGTACCGACTCACTAGTCTGGAAACTCCACACTGAAAGTGACTGGGGGGGGCCCCATCACATTTGTGCTACTGCTTGATAGAGTTGCGGCTGGTCAACTTGGATTGGTATAACCAGTTGAA
modifications: lipid formulation; Grusopivirus A
B6: Human enterovirus 109 (nucleic acid, listed as Enterovirus sp.)
DNA: TTTAAAACAGCCTGGGGGTTGTTCCCACCCCCAGGGCCCACTGGGCGTTAGTACTCTGGTATCGCGGTACCTTAGTATGCCTGTTTTATGTCTCCTTTCCCCCGCAACTTTAGAAGTAATCAAGTTATGGCTCAACAGTCGCCACACCCCCAGTGTGGTTCCGAGCAAGCACTTCTGTTCCCCGGTTGCGTCTTATATGCTGTGTGAACGGCAGAAAGGGACAATATCGTTATCCGCTCAACTACTACGGGAAGCCTAGTACCACCATGGATTGACCTGAAAGTTGCGTTCAGCGCACCCCCAGCGCAGCTCAGGCCGATGAGGCTCCGAATACCCCACGGGCGACCGTGTCGGAGCCTGCGTTGGCGGCCTGCCCACGTTGCAAAACGTGGGACGCTCATTTCATGACATGGTGCGAAGAGCCTACTGTGCTAGTTGAGAGTCCTCCGGCCCCTGAATGTGGATAATCCTAACCACTGAACCTACGGGCGCAAACCAGCGTCTGGTAGGCCGTAACGCGCAAGTCGGTGGCGGAACCAACTACTTTGGGTGTCCGTGTTTCCTTTTATCTTTTTGAATGTTTATGGTGACAATTGTTGTGTACAGTTGTTACCATAGTTTGCATTCAGAAATAAACCTAACACTTTCCAATTATTTGTTACA

In the series the test system is HEK293 cells. The format is cell-based, human. As to conditions: circular RNA encoding Gluc with the listed IRES (UTR truncated to 675 nt) transfected into HEK293 cells; supernatant after 24 hours.
Regarding B1, the “Expression (luminescence from secreted Gluc protein)” value is 2.26E+08.
The same measure for B2: 4.37E+05.
Then B3, with 5.49E+05; and B4, with 1.90E+08.
The same measure for B5: 1.09E+05.
In the case of B6, the “Expression (luminescence from secreted Gluc protein)” value worked out at 4.92E+05.
